Assay results: US6372898 (SCHERING, dated 2002)

Assays:
[1] = target: T1, cytokine receptor common gamma chain (γc), wild type (human, UniProt P31785 23-369); test: co-immunoprecipitation from 293T lysates; anti-FLAG M2 IP of FLAG-tagged Jak3, blot for γc
T1 construct: also called WT γc; gc
T1 sequence: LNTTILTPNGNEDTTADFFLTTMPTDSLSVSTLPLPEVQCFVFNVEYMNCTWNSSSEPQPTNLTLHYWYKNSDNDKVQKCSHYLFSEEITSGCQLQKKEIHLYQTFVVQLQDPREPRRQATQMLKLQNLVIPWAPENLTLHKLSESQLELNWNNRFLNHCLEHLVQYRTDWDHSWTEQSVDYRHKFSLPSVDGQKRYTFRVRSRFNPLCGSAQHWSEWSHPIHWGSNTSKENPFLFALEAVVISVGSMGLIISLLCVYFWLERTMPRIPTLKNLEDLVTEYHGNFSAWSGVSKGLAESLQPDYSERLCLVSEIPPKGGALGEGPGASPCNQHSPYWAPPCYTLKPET
Protocol: (§1) Lysates were centrifuged at 12,000×g, and NaCl was added to 500 mM final concentration. Lysates were immunoprecipitated with the appropriate antibody. Rabbit polyclonal, mouse monoclonal (M2), and Sepharose-conjugated M2 anti-FLAG antibodies were purchased from Kodak Scientific Imaging Systems (Rochester, N.Y.), Goat anti-γ_c antibody was purchased from R&D (Minneapolis, Minn.). Lysates were boiled, and subjected to 8% SDS-PAGE or 12% SDS-PAGE for experiments with Jak3 fragments, and electrotransferred onto […] membranes (Immobilon-P, Millipore, Bradford, Mass.). Membranes were probed with one of the following antibodies: Mouse monoclonal M2 anti-FLAG antibody, rabbit polyclonal anti-γ_c antibody, or mouse monoclonal anti-Myc tag antibody 9E10 (Santa Cruz Biotechnology, Santa Cruz, Calif.). For the immunoprecipitation with EBV-transformed B cell lines and the IL-2R expressing fibroblasts, cells were lysed as described above, except with a final NaCl concentration of 150 mM. Lysates were immunoprecipitated with monoclonal (M2) anti-FLAG antibody, rabbit polyclonal antibody directed against the C-terminus of Jak3 (α-Jak3; Kawamura, et al. (1994) *Proc Nat'l Acad Sci USA* 91:6374–8) or rabbit polyclonal antibody specific for STAT5b (Santa Cruz Biotechnology, Santa Cruz, Calif.). Immunoprecipitates were then washed, boiled, and resolved using SDS-PAGE. […]

[2] = target: T2, cytokine receptor common gamma chain (γc), wild type
T2 chain: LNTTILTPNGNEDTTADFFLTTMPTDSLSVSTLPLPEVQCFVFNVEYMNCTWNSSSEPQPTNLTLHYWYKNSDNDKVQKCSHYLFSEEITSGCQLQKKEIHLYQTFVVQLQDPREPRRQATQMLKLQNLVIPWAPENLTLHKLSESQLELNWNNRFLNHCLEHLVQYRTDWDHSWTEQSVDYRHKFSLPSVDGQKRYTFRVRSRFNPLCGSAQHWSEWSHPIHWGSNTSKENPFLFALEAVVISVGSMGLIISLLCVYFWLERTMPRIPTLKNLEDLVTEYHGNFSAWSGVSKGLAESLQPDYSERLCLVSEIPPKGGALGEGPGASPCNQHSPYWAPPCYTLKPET

[3] = target: T1, cytokine receptor common gamma chain …; test: co-immunoprecipitation, 293T cells
[4] = target: T1, cytokine receptor common gamma chain …; test: co-immunoprecipitation from 293T lysates; γc precipitated, blot for the epitope-tagged Jak3 fragment
Protocol: as §1

B1: Jak3 Y100C (enzyme)
chain: MAPPSEETPLIPQRSCSLLSTEAGALHVLLPARAPGPPQRLSFSFGDHLAEDLCVQAAKASGILPVYHSLFALATEDLSCWFPPSHIFSVEDASTQVLLCRIRFYFPNWFGLEKCHRFGLRKDLASAILDLPVLEHLFAQHRSDLVSGRLPVGLSLKEQGECLSLAVLDLARMAREQAQRPGELLKTVSYKACLPPSLRDLIQGLSFVTRRAIRRTVRRALPRVAACQADRHSLMAKYIMDLERLDPAGAAETFHVGLPGALGGHDGLGLLRVAGDGGIAWTQGEQEVLQPFCDFPEIVDISIKQAPRVGPAGEHRLVTVTRTDNQILEAEFPGLPEALSFVALVDGYFRLTTDSQHFFCKEVAPPRLLEEVAEQCHGPITLDFAINKLKTGGSRPGSYVLRRSPQDFDSFLLTVCVQNPLGPDYKGCLIRRSPTGTFLLVGLSRPHSSLRELLATCWDGGLHVDGVAVTLTSCCIPRPKEKSNLIVVQRGHSPPTSSLVQPQSQYQLSQMTFHKIPADSLEWHENLGHGSFTKIYRGCRHEVVDGEARKTEVLLKVMDAKHKNCMESFLEAASLMSQVSYRHLVLLHGVCMAGDSTMVQEFVHLGAIDMYLRKRGHLVPASWKLQVVKQLAYALNYLEDKGLPHGNVSARKVLLAREGADGSPPFIKLSDPGVSPAVLSLEMLTDRIPWVAPECLREAQTLSLEADKWGFGATVWEVFSGVTMPISALDPAKKLQFYEDRQQLPAPKWTELALLIQQCMAYEPVQRPSFRAVIRDLNSLISSDYELLSDPTPGALAPRDGLWNGAQLYACQDPTIFEERHLKYISQLGKGNFGSVELCRYDPLAHNTGALVAVKQLQHSGPDQQRDFQREIQILKALHSDFIVKYRGVSYGPGRPELRLVMEYLPSGCLRDFLQRHRARLDASRLLLYSSQICKGMEYLGSRRCVHRDLAARNILVESEAHVKIADFGLAKLLPLDKDYYVVREPGQSPIFWYAPESLSDNIFSRQSDVWSFGVVLYELFTYCDKSCSPSAEFLRMMGCERDVPALCRLLELLEEGQRLPAPPACPAEVHELMKLCWAPSPQDRPSFSALGPQLDMLWSGSRGCETHAFTAHPEGKHHSLSFS
notes: also called Y100C mutant; patient mutant; not shown: C-terminal FLAG tag (single copy) joined through a ClaI site
With B1 the binding result [1] was “no binding” and the “IL-2 induced tyrosine phosphorylation of Jak3 in IL-2R+ fibroblasts” value [2] was “no IL-2-induced phosphorylation of Jak3 Y100C was observed”.

B2: Jak3 Y100C/Y105F double mutant (enzyme)
chain: MAPPSEETPLIPQRSCSLLSTEAGALHVLLPARAPGPPQRLSFSFGDHLAEDLCVQAAKASGILPVYHSLFALATEDLSCWFPPSHIFSVEDASTQVLLCRIRFFFPNWFGLEKCHRFGLRKDLASAILDLPVLEHLFAQHRSDLVSGRLPVGLSLKEQGECLSLAVLDLARMAREQAQRPGELLKTVSYKACLPPSLRDLIQGLSFVTRRAIRRTVRRALPRVAACQADRHSLMAKYIMDLERLDPAGAAETFHVGLPGALGGHDGLGLLRVAGDGGIAWTQGEQEVLQPFCDFPEIVDISIKQAPRVGPAGEHRLVTVTRTDNQILEAEFPGLPEALSFVALVDGYFRLTTDSQHFFCKEVAPPRLLEEVAEQCHGPITLDFAINKLKTGGSRPGSYVLRRSPQDFDSFLLTVCVQNPLGPDYKGCLIRRSPTGTFLLVGLSRPHSSLRELLATCWDGGLHVDGVAVTLTSCCIPRPKEKSNLIVVQRGHSPPTSSLVQPQSQYQLSQMTFHKIPADSLEWHENLGHGSFTKIYRGCRHEVVDGEARKTEVLLKVMDAKHKNCMESFLEAASLMSQVSYRHLVLLHGVCMAGDSTMVQEFVHLGAIDMYLRKRGHLVPASWKLQVVKQLAYALNYLEDKGLPHGNVSARKVLLAREGADGSPPFIKLSDPGVSPAVLSLEMLTDRIPWVAPECLREAQTLSLEADKWGFGATVWEVFSGVTMPISALDPAKKLQFYEDRQQLPAPKWTELALLIQQCMAYEPVQRPSFRAVIRDLNSLISSDYELLSDPTPGALAPRDGLWNGAQLYACQDPTIFEERHLKYISQLGKGNFGSVELCRYDPLAHNTGALVAVKQLQHSGPDQQRDFQREIQILKALHSDFIVKYRGVSYGPGRPELRLVMEYLPSGCLRDFLQRHRARLDASRLLLYSSQICKGMEYLGSRRCVHRDLAARNILVESEAHVKIADFGLAKLLPLDKDYYVVREPGQSPIFWYAPESLSDNIFSRQSDVWSFGVVLYELFTYCDKSCSPSAEFLRMMGCERDVPALCRLLELLEEGQRLPAPPACPAEVHELMKLCWAPSPQDRPSFSALGPQLDMLWSGSRGCETHAFTAHPEGKHHSLSFS
notes: not shown: C-terminal FLAG tag (single copy) joined through a ClaI site
B2: no binding [1].

B3: Jak3 Y100C/K855A (enzyme)
chain: MAPPSEETPLIPQRSCSLLSTEAGALHVLLPARAPGPPQRLSFSFGDHLAEDLCVQAAKASGILPVYHSLFALATEDLSCWFPPSHIFSVEDASTQVLLCRIRFYFPNWFGLEKCHRFGLRKDLASAILDLPVLEHLFAQHRSDLVSGRLPVGLSLKEQGECLSLAVLDLARMAREQAQRPGELLKTVSYKACLPPSLRDLIQGLSFVTRRAIRRTVRRALPRVAACQADRHSLMAKYIMDLERLDPAGAAETFHVGLPGALGGHDGLGLLRVAGDGGIAWTQGEQEVLQPFCDFPEIVDISIKQAPRVGPAGEHRLVTVTRTDNQILEAEFPGLPEALSFVALVDGYFRLTTDSQHFFCKEVAPPRLLEEVAEQCHGPITLDFAINKLKTGGSRPGSYVLRRSPQDFDSFLLTVCVQNPLGPDYKGCLIRRSPTGTFLLVGLSRPHSSLRELLATCWDGGLHVDGVAVTLTSCCIPRPKEKSNLIVVQRGHSPPTSSLVQPQSQYQLSQMTFHKIPADSLEWHENLGHGSFTKIYRGCRHEVVDGEARKTEVLLKVMDAKHKNCMESFLEAASLMSQVSYRHLVLLHGVCMAGDSTMVQEFVHLGAIDMYLRKRGHLVPASWKLQVVKQLAYALNYLEDKGLPHGNVSARKVLLAREGADGSPPFIKLSDPGVSPAVLSLEMLTDRIPWVAPECLREAQTLSLEADKWGFGATVWEVFSGVTMPISALDPAKKLQFYEDRQQLPAPKWTELALLIQQCMAYEPVQRPSFRAVIRDLNSLISSDYELLSDPTPGALAPRDGLWNGAQLYACQDPTIFEERHLKYISQLGKGNFGSVELCRYDPLAHNTGALVAVAQLQHSGPDQQRDFQREIQILKALHSDFIVKYRGVSYGPGRPELRLVMEYLPSGCLRDFLQRHRARLDASRLLLYSSQICKGMEYLGSRRCVHRDLAARNILVESEAHVKIADFGLAKLLPLDKDYYVVREPGQSPIFWYAPESLSDNIFSRQSDVWSFGVVLYELFTYCDKSCSPSAEFLRMMGCERDVPALCRLLELLEEGQRLPAPPACPAEVHELMKLCWAPSPQDRPSFSALGPQLDMLWSGSRGCETHAFTAHPEGKHHSLSFS
notes: also called J3 Y100C/K855A; not shown: C-terminal FLAG or Myc tag joined through a ClaI site
B3: no binding [3].

B4: Jak3 fragment J3 1-109 (other, not shown: small tags and cut ends)
chain: MAPPSEETPLIPQRSCSLLSTEAGALHVLLPARAPGPPQRLSFSFGDHLAEDLCVQAAKASGILPVYHSLFALATEDLSCWFPPSHIFSVEDASTQVLLYRIRFYFPNW
B4: no binding [4].
